# Test results: patent US20190298830A1 (SUZHOU GALAXY BIOPHARMA, published 2019)
# Tests used:
# Assay in all cases: cell-based or functional assay
# [1] = molecular target: T1, E2 envelope protein on HCV euvirus (HCVcc) particles, strain PR79 (1b) (Hepatitis C virus strain PR79 (1b))
# [2] = molecular target: T2, E2 envelope protein on HCV euvirus (HCVcc) particles, strain JFH1 (2a) (Hepatitis C virus strain JFH1 (2a))
# [3] = molecular target: T3, E2 envelope protein on HCV euvirus (HCVcc) particles, strain D183 (2a) (Hepatitis C virus strain D183 (2a))
# [4] = molecular target: E2 envelope protein on HCV euvirus particles, strain PR52B6M (1b) (Hepatitis C virus strain PR52B6M (1b))
# [5] = molecular target: E2 envelope protein on HCV euvirus (HCVcc) particles, strain PR52 (1b) (Hepatitis C virus strain PR52 (1b))
# [6] = molecular target: E2 envelope protein on HCV euvirus (HCVcc) particles, strain PR26 (1b) (Hepatitis C virus strain PR26 (1b))
# [7] = molecular target: E2 envelope protein on HCV euvirus (HCVcc) particles, strain Con1 (1b) (Hepatitis C virus strain Con1 (1b))
# [8] = molecular target: T1, E2 envelope protein on HCV euvirus …; remark: listed apart in the source
# [9] = molecular target: T2, E2 envelope protein on HCV euvirus …; remark: listed apart in the source
# [10] = molecular target: E2 envelope protein on HCV euvirus (HCVcc) particles, strain PR63 (2a) (Hepatitis C virus strain PR63 (2a))
# [11] = molecular target: T3, E2 envelope protein on HCV euvirus …; remark: listed apart in the source
# [12] = molecular target: E2 envelope protein on HCV euvirus (HCVcc) particles, strain J8 (2b) (Hepatitis C virus strain J8 (2b))
# [13] = molecular target: E2 envelope protein on HCV euvirus (HCVcc) particles, strain S52 (3a) (Hepatitis C virus strain S52 (3a))
# [14] = molecular target: E2 envelope protein on HCV euvirus (HCVcc) particles, strain SA13 (5a) (Hepatitis C virus strain SA13 (5a))
# [15] = molecular target: E2 envelope protein on HCV euvirus (HCVcc) particles, strain HK6a (6a) (Hepatitis C virus strain HK6a (6a))
binder,measurement,setting,value
"human monoclonal antibody 8D6 (antibody, V domains shown) VH: EVQLVQSGSELKKPGASLKLSCKASGYTYITPAMNWVRQAPGHGLEWMGGINTNTGNPTYAQGFAGRFVFSWDTSVSTAYLHISSLKTEDTAVYYCADTRIFSCRRGTCYGGFDVWGQGTMVTVSS VL: DIQMTQSPSSLSASVGDRITITCRASQSISNFLNWFQHRPGKAPKLLIYGATILQSGVPSRFSGSGSGTDFTLTISSLQPEDFATYYCQQSDSSTYIFGQGTKVEIK","inhibition rate of HCV euvirus, at antibody concentration higher than 0.4 µg/ml",[1],> 90%
same,"inhibition rate of HCV euvirus, at antibody concentration higher than 0.4 µg/ml",[2],> 90%
same,"inhibition rate of HCV euvirus, at antibody concentration higher than 0.4 µg/ml",[3],> 90%
same,"inhibition rate of HCV euvirus, at antibody concentration higher than 0.4 µg/ml",[4],> 90%
same,"IC50 (µg/ml), micro neutralization of HCV euvirus (NS5A-positive foci in Huh-7.5 cells)",[5],< 0.08 µg/mL
same,"IC50 (µg/ml), micro neutralization of HCV euvirus (NS5A-positive foci in Huh-7.5 cells)",[6],0.412 µg/mL
same,"IC50 (µg/ml), micro neutralization of HCV euvirus (NS5A-positive foci in Huh-7.5 cells)",[7],2.43 µg/mL
same,"IC50 (µg/ml), micro neutralization of HCV euvirus (NS5A-positive foci in Huh-7.5 cells)",[8],< 0.08 µg/mL
same,"IC50 (µg/ml), micro neutralization of HCV euvirus (NS5A-positive foci in Huh-7.5 cells)",[9],0.003 µg/mL
same,"IC50 (µg/ml), micro neutralization of HCV euvirus (NS5A-positive foci in Huh-7.5 cells)",[10],< 0.016 µg/mL
same,"IC50 (µg/ml), micro neutralization of HCV euvirus (NS5A-positive foci in Huh-7.5 cells)",[11],< 0.08 µg/mL
same,"IC50 (µg/ml), micro neutralization of HCV euvirus (NS5A-positive foci in Huh-7.5 cells)",[12],10 µg/mL
same,"IC50 (µg/ml), micro neutralization of HCV euvirus (NS5A-positive foci in Huh-7.5 cells)",[13],0.01 µg/mL
same,"IC50 (µg/ml), micro neutralization of HCV euvirus (NS5A-positive foci in Huh-7.5 cells)",[14],0.087 µg/mL
same,"IC50 (µg/ml), micro neutralization of HCV euvirus (NS5A-positive foci in Huh-7.5 cells)",[15],0.0015 µg/mL
